In US20140323400A1 (ASSOCIATION FRANCAISE CONTRE LES MYOPATHIES, published 2014):
The star is where a group is joined. Biotin = O=C1N[C@H]2[C@H](CS[C@H]2CCCCC(=O)*)N1

Target: T1, mature myostatin (UniProt O08689 268-376, limits assumed)
T1 construct: mature; also called MSTN
T1 sequence (looked up): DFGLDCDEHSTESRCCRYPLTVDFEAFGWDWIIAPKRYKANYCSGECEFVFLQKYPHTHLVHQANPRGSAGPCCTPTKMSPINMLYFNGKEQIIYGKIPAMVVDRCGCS
Experiment: ELISA, biotinylated peptide on coated myostatin, with or without zinc
Protocol: For this, 3 μl of myostatin at a concentration of 100 ng/μl are taken up in 50 μl of carbonate buffer and added to each well of the assay plate (R&D Systems DY990). After an overnight incubation at 4° C., the plate is washed with 100 μl of PBS-Tween (0.05% Tween 20), then the blocking step to saturate non-specific sites is carried out for 2 hours at room temperature with 100 μl of PBS and 6% of milk per well. Five successive washes with 200 μl of PBS-Tween (0.05% Tween 20) are performed and increasing amounts of biotinylated fibromodulin peptides are then deposited (100 μl final in PBS) and the plate is incubated for 1 hour at 37° C. For the positive control, an antibody of goat anti-myostatin (≠AF788, R&D Systems), which was deposited in the control wells and incubated for 1 hour at 1/100th (0.1 mg/ml) was […]. The wells were then washed 5 times with PBS-Tween (0.05% Tween 20). […] After five washes, adding the peroxidase substrate, the TMB Substrate Reagent Set (Tetramehylbenzidine, OptEIA, ≠555214) allows the obtention of a colored reaction proportional to the quantity of HRP present in the wells. The reaction is stopped after 20 minutes by addition of sulfuric acid 2N, and the plate is read at 450 nm on a Discovery HT-R spectrophotometer (Bio-TEK).

binding result: no binding
B1: Peptide Biotine-69-101 mFibromoduline mutated (Fmod mutated) (peptide)
peptide: Biotin-PPPEPRDCPQEADAPPNFPTAMYADNRNLKYLP-NH2
SMILES: CSCC[C@H](NC(=O)[C@H](C)NC(=O)[C@@H](NC(=O)[C@@H]1CCCN1C(=O)[C@H](Cc1ccccc1)NC(=O)[C@H](CC(N)=O)NC(=O)[C@@H]1CCCN1C(=O)[C@@H]1CCCN1C(=O)[C@H](C)NC(=O)[C@H](CC(=O)O)NC(=O)[C@H](C)NC(=O)[C@H](CCC(=O)O)NC(=O)[C@H](CCC(N)=O)NC(=O)[C@@H]1CCCN1C(=O)[C@H](CS)NC(=O)[C@H](CC(=O)O)NC(=O)[C@H](CCCNC(=N)N)NC(=O)[C@@H]1CCCN1C(=O)[C@H](CCC(=O)O)NC(=O)[C@@H]1CCCN1C(=O)[C@@H]1CCCN1C(=O)[C@@H]1CCCN1C(=O)CCCC[C@@H]1SC[C@@H]2NC(=O)N[C@@H]21)[C@@H](C)O)C(=O)N[C@@H](Cc1ccc(O)cc1)C(=O)N[C@@H](C)C(=O)N[C@@H](CC(=O)O)C(=O)N[C@@H](CC(N)=O)C(=O)N[C@@H](CCCNC(=N)N)C(=O)N[C@@H](CC(N)=O)C(=O)N[C@@H](CC(C)C)C(=O)N[C@@H](CCCCN)C(=O)N[C@@H](Cc1ccc(O)cc1)C(=O)N[C@@H](CC(C)C)C(=O)N1CCC[C@H]1C(N)=O
notes: also called mutated biotin mFmod peptide
